This series deals with the molecule itself. Description: EMSA, E. coli protein extract with 32P-labeled BoxIIml DNA probe; homodimer inferred from the shifted band. The procedure:
FIG. 5: Electrophoretic mobility shift assay (EMSA) of Rf2a and the 3Δ mutant of Rf2a. Oligonucleotides containing the BoxIIml sequences (Yin et al., 1997a) were used as ^32P-labeled probe or an unlabeled competitor in an EMSA with 500 ng of *E. coli* protein containing 3Δ protein or Rf2a. Unbound probe is located near the bottom of the gel. The band with the greatest mobility in lanes 1, 2, 4, and 5 indicated by x is presumed to result from binding with an uncharacterized protein that co-purifies with the target protein. Lane 1, protein prepared from *E. coli* without induction. Lane 2, reaction with extracts of *E. coli* that produce Rf2a. Lane 3, reaction with equimolar amounts of Rf2a and 3Δ plus 80× fold molar excess of unlabeled competitor probe relative to the labeled probe. Lane 4, reaction with equimolar amounts of Rf2a and 3Δ. Lane 5, reaction with 3Δ.
Electrophoretic mobility shift assays (EMSAs). EMSAs were carried out essentially as described by Yin and Beachy (7). 500 ng of *E. coli* protein extracts were incubated with 32_P labeled DNA probes comprising Box IIml that was constructed using annealed oligonucleotides (10). For competition EMSA, unlabeled oligonucleotides were added to the binding reactions at 80 fold molar excess relative to the labeled probe (see FIG. 5).
For orientation: In EMSA bound probe runs differently from free probe, usually more slowly.

B1: Rf2a transcription factor (other)
chain: MNREKSPIPGDGGDGLPPQATRRAGPPAAAAAAEYDISRMPDFPTRNPGHRRAHSEILSLPEDLDLCAAGGGDGPSLSDENDEELFSMFLDVEKLNSTCGASSEAEAESSSAAAHGARPKHQHSLSMDESMSIKAEELVGASPGTEGMSSAEAKKAVSAVKLAELALVDPKRAKRIWANRQSAARSKERKMRYIAELERKVQTLQTEATTLSAQLALLQRDTSGLTTENSELKLRLQTMEQQVHLQDALNDTLKSEVQRLKVATGQMANGGGMMMNFGGMPHQFGGNQQMFQNNQAMQSMLAAHQLQQLQLHPQAQQQQVLHPQHQQQQPLHPLQAQQLQQAARDLKMKSPMGGQSQWGDGKSGSSGN
notes: The 5' primer encodes an extra Met-Glu-Lys before MNREKS; Crude E. coli protein extract was used in the EMSA; also called rice transcription factor Rf2a
With B1, the binding result was “binds”.

(Values after patent publication US7276370 (DONALD DANFORTH PLANT SCIENCE CENTER, dated 2007).)
